Laboratory results: patent publication US20130316022A1, “METHOD TO ENHANCE ANTIMICROBIAL ACTIVITY BY INCREASING pH” (University of Iowa Research Foundation, priority 2012, published 2013)

What was measured:
[1] = tested on: E. coli DH5a expressing luminescence plasmid pCGLS1; assay: E. coli luminescence antibacterial assay, effect of pH; assay type: cell-based; settings: pH values from 6.8-8.0 (FIG. 8)
Method: (§1) To assess the effect of pH on the antibacterial activity of lysozyme and lactoferrin, we used a luminescence assay of bacterial viability that has been described previously ^15. The bacteria used were S. aureus Xen29 (Caliper LifeSciences Bioware™, Hopkinton, Mass.) and E. coli DH5a (GIBCO BRL, Life Technologies, Grand Island, N.Y.) expressing a luminescence plasmid pCGLS1. E. coli were grown in Luria-Bertani medium containing ampicillin (100 μg/ml, to maintain the plasmid) at 30° C. with shaking. For S. aureus, kanamycin 10 μg/ml was used instead of ampicillin. Log phase bacteria were centrifuged and resuspended in 1% Tryptic Soy Broth medium with 10 mM HEPES titrated to pH values from 6.8-8.0. E. coli (5×10^6 CFU) or S. aureus (5×10^5 CFU) were incubated with the indicated concentrations of lysozyme or lactoferrin in 96-well plates (Optiplate-96, Perkin Elmer, Waltham, Mass.) in a total volume of 120 μl. Controls were the same conditions in the same plates, but without lysozyme or lactoferrin. After incubation at 30° C. for the indicated times, luminescence was measured with a luminometer (Spectra Max L, Molecular Devices, Sunnyvale, Calif.) and was reported as relative light units (RLU). A previous study^16 determined that reductions in luminescence have an excellent correlation with a decrease in CFU.

S. aureus Xen29 = assay: S. aureus luminescence antibacterial assay, effect of pH; assay type: cell-based
Method: as §1

B1: lysozyme (protein, UniProt P61626 19-148, looked up)
Lysozyme C: KVFERCELARTLKRLGMDGYRGISLANWMCLAKWESGYNTRATNYNAGDRSTDYGIFQINSRYWCNDGKTPGAVNACHLSCSALLQDNIADAVACAKRVVRDPQGIRAWVAWRNRCQNRDVRQYVQGCGV
notes: endogenous ASL antimicrobial protein, tested at 1.25 mg/ml
For B1, the “effect of pH on E. coli killing” value [1] was “increasing pH increased S. aureus and E. coli killing”, the “relative luminescence compared to control” value (from here on “relative luminescence”) (S. aureus Xen29; pH 6.8, 1.25 mg/ml lysozyme, 30 minutes) was 49.1 ± 3.4 and the “relative luminescence” value (S. aureus Xen29; pH 7.2, 1.25 mg/ml lysozyme, 30 minutes) was 43.5 ± 1.5. For the same molecule, the “relative luminescence” value (S. aureus Xen29; pH 7.6, 1.25 mg/ml lysozyme, 30 minutes) was 30.6 ± 2.3 and the “relative luminescence” value (S. aureus Xen29; pH 8.0, 1.25 mg/ml lysozyme, 30 minutes) was 23.4 ± 0.8.

B2: lactoferrin (protein, UniProt P02788 20-710, looked up)
Lactotransferrin: GRRRSVQWCAVSQPEATKCFQWQRNMRKVRGPPVSCIKRDSPIQCIQAIAENRADAVTLDGGFIYEAGLAPYKLRPVAAEVYGTERQPRTHYYAVAVVKKGGSFQLNELQGLKSCHTGLRRTAGWNVPIGTLRPFLNWTGPPEPIEAAVARFFSASCVPGADKGQFPNLCRLCAGTGENKCAFSSQEPYFSYSGAFKCLRDGAGDVAFIRESTVFEDLSDEAERDEYELLCPDNTRKPVDKFKDCHLARVPSHAVVARSVNGKEDAIWNLLRQAQEKFGKDKSPKFQLFGSPSGQKDLLFKDSAIGFSRVPPRIDSGLYLGSGYFTAIQNLRKSEEEVAARRARVVWCAVGEQELRKCNQWSGLSEGSVTCSSASTTEDCIALVLKGEADAMSLDGGYVYTAGKCGLVPVLAENYKSQQSSDPDPNCVDRPVEGYLAVAVVRRSDTSLTWNSVKGKKSCHTAVDRTAGWNIPMGLLFNQTGSCKFDEYFSQSCAPGSDPRSNLCALCIGDEQGENKCVPNSNERYYGYTGAFRCLAENAGDVAFVKDVTVLQNTDGNNNEAWAKDLKLADFALLCLDGKRKPVTEARSCHLAMAPNHAVVSRMDKVERLKQVLLHQQAKFGRNGSDCPDKFCLFQSETKNLLFNDNTECLARLHGKTTYEKYLGPQYVAGITNLKKCSTSPLLEACEFLRK
notes: endogenous ASL antimicrobial protein, tested at 4 mg/ml
For B2, the “effect of pH on E. coli killing” value [1] was “increasing pH increased S. aureus and E. coli killing”, the “relative luminescence” value (S. aureus Xen29; pH 6.8, 4 mg/ml lactoferrin, 60 minutes) was 85.0 ± 9.3 and the “relative luminescence” value (S. aureus Xen29; pH 7.2, 4 mg/ml lactoferrin, 60 minutes) was 73.6 ± 8.2. For the same molecule, the “relative luminescence” value (S. aureus Xen29; pH 7.6, 4 mg/ml lactoferrin, 60 minutes) was 60.8 ± 4.8 and the “relative luminescence” value (S. aureus Xen29; pH 8.0, 4 mg/ml lactoferrin, 60 minutes) was 39.8 ± 5.0.
